Test [1] has as its target glutathione-S-transferase fusion protein containing domains v3-v10 of human CD44 (human) (UniProt P16070). Briefly: SPR (BIAcore 2000), GST/CD44v3-v10 immobilized on CM5 chip.
In test [2] the target is CD44v6 on human tumour cells (human) (UniProt P16070). Briefly: immunoreactivity assay, 186Re-MAG3-labelled MAb on fixed UM-SCC-11B cells.
For test [3], the target named is glutathione-S-transferase fusion protein containing domains v3-v10 of human CD44 (human) (UniProt P16070). Briefly: SPR (BIAcore 2000), GST/CD44v3-v10 immobilized on CM5 chip, MAb injected at 8-67 nM.
Test [4] addresses CD44v6 on human tumour cells (human) (UniProt P16070). Briefly: immunoreactivity assay, 131I-labelled IgG on glutaraldehyde-fixed UM-SCC-11B cells, experiment 1.
For test [5] the target is unchanged. Briefly: immunoreactivity assay, 131I-labelled IgG on fixed UM-SCC-11B cells, linear extrapolation to infinite antigen excess, experiment 1.
For test [6] the target is unchanged. Briefly: immunoreactivity assay, 125I-labelled IgG on glutaraldehyde-fixed UM-SCC-11B cells, experiment 2.
Test [7] has the same target. Briefly: competitive cell ELISA on fixed A431 cells against mMAb BIWA 1; IC50 relative to BIWA 2.
Test [8] shares this target. Briefly: immunoreactivity assay, 125I-labelled IgG on fixed UM-SCC-11B cells, linear extrapolation to infinite antigen excess, experiment 2.
The target in test [9] is T1, glutathione-S-transferase fusion protein containing domains v3-v10 of human CD44 (human, UniProt P16070 267-604).
T1 construct: also called GST/CD44v3-v10; recombinant antigen; not shown: glutathione-S-transferase (GST) fusion partner
T1 sequence (looked up): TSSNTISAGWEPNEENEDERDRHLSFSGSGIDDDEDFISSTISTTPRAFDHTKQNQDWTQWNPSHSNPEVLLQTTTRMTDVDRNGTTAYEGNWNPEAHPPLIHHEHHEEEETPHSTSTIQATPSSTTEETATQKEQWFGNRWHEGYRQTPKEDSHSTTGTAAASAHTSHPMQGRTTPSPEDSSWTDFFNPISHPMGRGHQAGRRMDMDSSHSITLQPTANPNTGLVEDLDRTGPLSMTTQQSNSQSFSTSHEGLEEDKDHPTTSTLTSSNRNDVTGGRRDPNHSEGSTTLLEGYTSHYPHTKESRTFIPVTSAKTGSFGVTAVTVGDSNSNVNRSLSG
Briefly: ratio of affinities (SPR on GST/CD44v3-v10, Table 1).

Test [10] concerns the target T1, glutathione-S-transferase fusion …. Briefly: SPR (BIAcore 2000), GST/CD44v3-v10 immobilized on CM5 chip. How it is done:
(§1) Evaluation of antibody affinity. Measurement of kinetic and affinity constants using recombinant antigen was performed on a BIAcore 2000 system (BIAcore AB, Uppsala, Sweden). A glutathione-S-transferase fusion protein containing domains v3–v10 of human CD44 (GST/CD44v3–v10; 20 μg/ml) was immobilized on a CM5 sensor chip by the amine coupling method according to the manufacturer's instructions, using 10 mM sodium acetate pH 5.0 as coupling buffer. 35 μl of MAb at various concentrations (8–67 nM) in HBS (10 mM HEPES, pH 7.4, 150 mM NaCl, 3.4 mM EDTA, 0.05% BLAcore surfactant P20) were injected over the antigen-coated surface at a flow rate of 5 μL/min. Dissociation of the MAb was assessed for 5 minutes in buffer flow (HBS). Between two analyses, the surface of the chip was regenerated with a single pulse of 15 μl 30 mM HCl. Analysis of the data and calculation of the kinetic constants were performed with BIAcore's BIAevaluation software, version 2.1. Association rates (k_a), dissociation rates (k_d), and dissociation constants (K_d) were assessed for all antibodies.
(§2) In vitro binding characteristics of the CD44v6specific MAbs. The binding affinities of the five MAbs were analyzed using recombinant antigen as well as human tumor cell lines. Kinetic and affinity constants were evaluated by surface plasmon resonance using GST/CD44v3–v10 as immobilized antigen.

For test [11] the target is unchanged. Briefly: SPR (BIAcore 2000), GST/CD44v3-v10 immobilized on CM5 chip, MAb injected at 8-67 nM. How it is done:
as §1, §2

Test [12] concerns the target CD44v6 on human tumour cells (human) (UniProt P16070). Briefly: immunoreactivity assay, 131I-labelled IgG on glutaraldehyde-fixed UM-SCC-11B cells, experiment 2.
For test [13] the target is unchanged. Briefly: immunoreactivity assay, 131I-labelled IgG on glutaraldehyde-fixed UM-SCC-11B cells, experiment 3.
The target is the same in test [14]. Briefly: immunoreactivity assay of clinical 99mTc-/186Re-MAG3-labelled BIWA 4 batches on fixed UM-SCC 11B cells.
Test [15] shares this target. Briefly: immunoreactivity assay, 131I-labelled IgG on fixed UM-SCC-11B cells, linear extrapolation to infinite antigen excess, experiment 2.
Test [16] shares this target. Briefly: immunoreactivity assay, 131I-labelled IgG on fixed UM-SCC-11B cells, linear extrapolation to infinite antigen excess, experiment 3.
The target is the same in test [17]. Briefly: competitive cell ELISA on fixed A431 cells; inhibition of binding of mMAb BIWA 1, detected with peroxidase-conjugated anti-mouse Fc; unit taken from the concentration axis.
The target is the same in test [18]. Briefly: immunoreactivity assay, 125I-labelled IgG on glutaraldehyde-fixed UM-SCC-11B cells, experiment 3.
Test [19] has the same target. Briefly: immunoreactivity assay, 125I-labelled IgG on fixed UM-SCC-11B cells, linear extrapolation to infinite antigen excess, experiment 3.

Changes are numbered by the printed parent chain.

mMAb U36 (antibody): the Kd relative to murine BIWA 1 in test [1] was found to be 35 fold. This molecule came in with an immunoreactive fraction in test [2] of 75%. Besides, in [3], the Kd stood at 11 nM, the koff is 0.00017 s⁻¹ and the kon was 15000 M⁻¹ s⁻¹. Further, the Binding to 5 × 10^6 cells (%) in [4] was 59.7%. In addition, the Binding Extrapolated (%) (immunoreactive fraction) in [5] was 87.4%.
For cMAb BIWA 2 (antibody), the Kd relative to murine BIWA 1 in test [1] is 0.7 fold. For the same molecule, in test [2], the immunoreactive fraction was 75%. Also, in test [3], the Kd worked out at 0.24 nM, the koff worked out at 4.1e-05 s⁻¹ and the on-rate constant (kon) was 170000 M⁻¹ s⁻¹. The Binding to 5 × 10^6 cells (%) in [6] was 80.5%. The molecule further displayed a relative IC50 values in test [7] of 1. In test [8], the Binding Extrapolated (%) (immunoreactive fraction) is 79.9%.

B1: hMAb BIWA 4 (antibody, human IgG1, kappa, V domains shown)
VH: EVQLVESGGGLVKPGGSLRLSCAASGFTFSSYDMSWVRQAPGKGLEWVSTISSGGSYTYYLDSIKGRFTISRDNAKNSLYLQMNSLRAEDTAVYYCARQGLDYWGRGTLVTVSS
VL: EIVLTQSPATLSLSPGERATLSCSASSSINYIYWYQQKPGQAPRLLIYLTSNLASGVPARFSGSGSGTDFTLTISSLEPEDFAVYYCLQWSSNPLTFGGGTKVEIKR
notes: CDR-grafted humanised version of BIWA 1 without murine framework residues; human IgG1/kappa; in the clinical study as 99mTc- or 186Re-MAG3 conjugate; also called Humanized BIWA 4; bivatuzumab
Regarding B1, in test [9], the “fold lower affinity than cMAb BIWA 2” value came out at 14 fold and the “fold lower affinity than hMAb BIWA 8” value stood at 4 fold. In [10], the “Kd relative to murine BIWA 1” value stood at 10.5 fold. In test [2], the immunoreactive fraction turned out to be 75%. In [11], this molecule showed an equilibrium dissociation constant (Kd) of 3.4 nM, a koff of 0.00022 s⁻¹ and a kon of 65000 M⁻¹ s⁻¹. In test [12], this molecule returned a Binding to 5 × 10^6 cells (%) of 77.4%. In [13], this molecule yielded a Binding to 5 × 10^6 cells (%) of 77.3%. Besides, the relative IC50 values in [7] was 44. Also, in [14], the immunoreactive fraction amounted to 80%. Further, the Binding Extrapolated (%) (immunoreactive fraction) in [15] is 82.3%. Moreover, the Binding Extrapolated (%) (immunoreactive fraction) in test [16] was 74.5%. The molecule further registered an IC50 in test [17] of 8.01 µg/mL.

B2: hMAb BIWA 8 (antibody, human IgG1, kappa, V domains shown)
VH: B1 VH
VL: B1 VL with Y35L, L45I
notes: CDR-grafted humanised version of BIWA 1 with two murine residues in light chain framework 2; human IgG1/kappa; also called Humanized BIWA 8
On to B2, for which the “Kd relative to murine BIWA 1” value in test [10] stood at 2.6 fold. Besides, the immunoreactive fraction in test [2] worked out at 75%. In test [11], this molecule had a Kd of 0.84 nM, an off-rate (koff) of 6.3e-05 s⁻¹ and an association rate constant (kon) of 75000 M⁻¹ s⁻¹. In test [18], this molecule showed a Binding to 5 × 10^6 cells (%) of 91.8%. This molecule returned a relative IC50 values in test [7] of 2. Besides, in [19], the Binding Extrapolated (%) (immunoreactive fraction) is 92.1%. In test [17], this molecule had an IC50 of 0.335 µg/mL.
